± gives the uncertainty stated by the source.
Assay: self-splicing fitness, log relative to wild type (ln ratio); higher = more splicing; Tetrahymena group I intron in knt gene, E. coli kanamycin selection, DiMSum; sequences stand for … in CUCUCU…GGAGGGAAAAGUUAUCAGGCAUGCACCUGGUAGCUAGUCUUUAAACCAAUAGAUUGCAUCGGUUUAAAAGGCAAGACCGUCAAAUUGCGGGAAAGGGGUCAACAGCCGUUCAGUACCAAGUCUCAGGGGAAACUUUGAGAUGGCCUUGCAAAGGGUAUGGUAAUAAGCUGACGGACAUGGUCCUAACCACGCAGCCAAGUCCUAAGUCAACAGAUCUUCUGUUGAUAUGGAUGCAGUUCACAGACUAAAUGUCGGUCGGGGAAGAUGUAUUCUUCUCAUAAGAUAUAGUCGGACCUCUCCUUAAUGGGAGCUAGCGGAUGAAGUGAUGCAACACUGGAGCCGCUGGGAACUAAUUUGUAUGCGAAAGUAUAUUGAUUAGUUUUGGAGUACUCGUGGUCG
Method in brief: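 Fitness was computed with DiMSum as the error-weighted combination of replicate fold changes, kanamycin versus none, each normalised to wild type. The library randomised all eight intron nucleotides of the P1ex region, with the intron placed in the knt kanamycin-resistance gene on pET-22b(+) in E. coli BL21(DE3). Six replicate transformations were grown overnight at 37°C or 30°C on LB agar with or without 25 μg/mL kanamycin, plus 100 μg/mL carbenicillin, 50 μM IPTG and 0.2% rhamnose. Pooled colonies were amplicon-sequenced on an Illumina HiSeq 2500.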

Sequence	self-splicing fitness (ln) (30 °C)	self-splicing fitness (ln) (37 °C)
UCCGAGCAAUAUUACGUUUA	-2.86 ± 0.48	-1.71 ± 0.23
UCCUAGCAAUAUUACGAAGA	-1.13 ± 0.12	0.123 ± 0.12
UCCUAGCAAUAUUACGACAG	-3.29 ± 0.25	-2.42 ± 0.31
UCCUAGCAAUAUUACGACUC	-2.94 ± 0.41	-2.24 ± 0.36
UCCUAGCAAUAUUACGACUG	-3.17 ± 0.27	-3.52 ± 0.42
UCCUAGCAAUAUUACGAGGA	-2.59 ± 0.48	-2.62 ± 0.35
UCCUAGCAAUAUUACGAUGU	-1.49 ± 0.06	-0.553 ± 0.079
UCCUAGCAAUAUUACGAUUC	–	-2.2 ± 0.29
UCCUAGCAAUAUUACGCAAA	-2.95 ± 0.21	-1.48 ± 0.12
UCCUAGCAAUAUUACGCAUA	-2.82 ± 0.3	-2.11 ± 0.2
UCCUAGCAAUAUUACGCCGA	-0.215 ± 0.11	0.0045 ± 0.11
UCCUAGCAAUAUUACGCCGU	-1.83 ± 0.26	-0.887 ± 0.24
UCCUAGCAAUAUUACGCGAG	-3.06 ± 0.27	-3.22 ± 0.37
UCCUAGCAAUAUUACGGACC	-2.64 ± 0.27	–
UCCUAGCAAUAUUACGGACG	-3.92 ± 0.4	-2.47 ± 0.39
UCCUAGCAAUAUUACGGCAG	-3.38 ± 0.24	-2.81 ± 0.22
UCCUAGCAAUAUUACGGCCG	-4.16 ± 0.42	-3.12 ± 0.37
UCCUAGCAAUAUUACGGUUA	–	-2.54 ± 0.31
UCCUAGCAAUAUUACGUCAU	-3.25 ± 0.13	-3.37 ± 0.23
UCCUAGCAAUAUUACGUGCU	-3.5 ± 0.17	-1.8 ± 0.2

Sequence	self-splicing fitness (ln) (30 °C)	self-splicing fitness (ln) (37 °C)
UCGAAGCAAUAUUACGACUU	-1.14 ± 0.21	-2.8 ± 0.23
UCGAAGCAAUAUUACGAGAU	-4.08 ± 0.42	-2.66 ± 0.21
UCGAAGCAAUAUUACGAUUU	-4.4 ± 0.39	-1.97 ± 0.23
UCGAAGCAAUAUUACGCAGG	-3.31 ± 0.23	-1.8 ± 0.16
UCGAAGCAAUAUUACGCCGA	-0.786 ± 0.25	-1.16 ± 0.28
UCGAAGCAAUAUUACGCCGG	-2.32 ± 0.13	-2.18 ± 0.19
UCGAAGCAAUAUUACGGCUU	-3.32 ± 0.27	-2.85 ± 0.22
UCGAAGCAAUAUUACGGGAG	-3.68 ± 0.33	-2.91 ± 0.31
UCGAAGCAAUAUUACGUAGG	-1.42 ± 0.08	-1.61 ± 0.1
UCGAAGCAAUAUUACGUCAC	-2.21 ± 0.12	-2.69 ± 0.27
UCGAAGCAAUAUUACGUGGG	-2.34 ± 0.14	-2.18 ± 0.18
UCGAAGCAAUAUUACGUUAU	-4.01 ± 0.28	-1.16 ± 0.15
UCGAAGCAAUAUUACGUUCA	-2.59 ± 0.26	-1.18 ± 0.17
UCGAAGCAAUAUUACGUUCG	-1.54 ± 0.12	-0.659 ± 0.19
UCGCAGCAAUAUUACGAAUG	-3.42 ± 0.23	-4.35 ± 0.42
UCGCAGCAAUAUUACGACCU	-3.1 ± 0.41	-1.37 ± 0.27
UCGCAGCAAUAUUACGAUCC	–	-1.68 ± 0.36
UCGCAGCAAUAUUACGAUCU	-1.17 ± 0.21	-2.57 ± 0.21
UCGCAGCAAUAUUACGAUGG	-0.799 ± 0.061	-0.226 ± 0.084

From the supplement of paper PMC7877785
